Laboratory results: patent US20260315592 (published 2026)

B1: SX13-7 (CAR46) (antibody)
chain: QLVESGGGLVKPGGSLRLSCAASGFTFSDYSMNWVRQAPGKGLEWVSSISSSSSYKKYADSVKGRLTISRDNAKNSLYLQMNSLRAEDTAVYYCARGIDYFDYWGQGTLVTVSSSGGGGSGGGGSGGGGSDIQLTQSPSFLSASVGDRVTITCRASQGISSNLAWYQQKPGKDPKVLIYGASTLQSGVPSRFSGSGSGTEFTLTISSLQPEDFATYYCQQLNSYPRTFGQGTKVEIK
B2: SX13-10 (CAR48) (antibody)
chain: QLLESGGGLVKPGGSLRLSCAASGFTFSRYNMNWVRQAPGKGLEWVSFISGSSSYVYYADSVKGRFTISKDNAKNSLYLQMNSLRAEDTAVYYCARSGYCTSTTCYNYYYYYMDVWGKGTTVTVSSSGGGGSGGGGSGGGGSEIVLMQSPGTLSLSPGERATLSCRASQSVSNSYLAWYQQKPGQAPRLLIYGASSRATGIPDRFSGSGSGTDFTLTISRLEPEDFAVFYCQQFGSSPLTFGGGTKVEIK
B3: SX13-12 (CAR49) (antibody)
chain: QLVESGGGLVKPGGSLRLSCAASGFTFSDYSMNWVRQAPGKGLNWVASISSSSHYKYYADSVKGRFTISRDNAKNSLYLQMNSLRAEDTAVYYCARGIDFFDIWGQGTMVTVSSSGGGGSGGGGSGGGGSDIQLTQSPSFLSASVGDRVTITCRASQDINSYLVWYQQKPGKAPKLLIYTASTLQSGVPSRFSGSGSGTEFTLTIRSLQPEDFATYYCQQLNSYPRTFGQGTKVEIK
B4: SX13-1 (CAR42) (antibody)
chain: QLVESGGGLVKPGGSLRLSCAASGFTFSDYSMNWVRQAPGKGLEWVSSISSSSRYKYYADSMKGRFTISRDNAKNSLYLQMNSLRVEDTAVYYCTRGIDYFDYWGQGTLVTVSSSGGGGSGGGGSGGGGSDIQLTQSPSFLSASVGDRVTITCRASQDINNYLAWYQQKPGKAPKFLIHVASTLQSGVPSRFSGSGSGTEFTLTISSLQPEDSATYYCQQLNSYPRTFGQGTKVEIK

What follows are binders tested against ENPP3 (human).
Sequence of ENPP3 (human) (chain, as listed by the source): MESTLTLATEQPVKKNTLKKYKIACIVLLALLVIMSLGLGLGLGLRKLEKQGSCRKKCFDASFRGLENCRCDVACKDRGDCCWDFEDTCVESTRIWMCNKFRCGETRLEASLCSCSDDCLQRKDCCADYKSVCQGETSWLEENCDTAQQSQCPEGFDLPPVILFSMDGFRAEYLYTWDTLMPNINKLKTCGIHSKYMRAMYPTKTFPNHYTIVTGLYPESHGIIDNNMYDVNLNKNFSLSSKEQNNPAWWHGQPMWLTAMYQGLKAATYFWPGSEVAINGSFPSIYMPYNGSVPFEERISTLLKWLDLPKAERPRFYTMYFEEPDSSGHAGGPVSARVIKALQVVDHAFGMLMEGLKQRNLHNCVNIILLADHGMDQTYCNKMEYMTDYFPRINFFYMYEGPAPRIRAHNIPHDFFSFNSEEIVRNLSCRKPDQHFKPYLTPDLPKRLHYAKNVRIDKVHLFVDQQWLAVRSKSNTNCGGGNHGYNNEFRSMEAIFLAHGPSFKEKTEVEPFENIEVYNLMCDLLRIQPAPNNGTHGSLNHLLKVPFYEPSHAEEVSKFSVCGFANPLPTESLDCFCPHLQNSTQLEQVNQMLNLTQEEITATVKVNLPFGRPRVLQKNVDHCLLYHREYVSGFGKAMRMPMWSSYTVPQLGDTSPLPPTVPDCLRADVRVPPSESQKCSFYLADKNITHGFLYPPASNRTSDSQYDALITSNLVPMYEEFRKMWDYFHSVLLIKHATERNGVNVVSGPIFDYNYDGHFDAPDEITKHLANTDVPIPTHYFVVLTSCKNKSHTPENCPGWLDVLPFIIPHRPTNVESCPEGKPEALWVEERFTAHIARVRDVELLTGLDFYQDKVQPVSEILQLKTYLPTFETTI

Question: B1 was tested. Which Kd did it give?
Answer: 4.24 nM

Question: How did the Kd turn out when B2 was run?
Answer: 113 nM

Question: For B3, which Kd is on record?
Answer: 23.5 nM

Question: For B4, which Kd is on record?
Answer: 18.9 nM
